How the values were obtained:
[1] = target: KV channel; assay: radioligand displacement, reference compound of the panel
[2] = target: Na+ channel (site 2); assay: radioligand displacement, 10 uM compound
[3] = target: NMDA; assay: radioligand displacement, 10 uM compound
[4] = target: Ca2+ channel (L, dihydropyridine site); assay: radioligand displacement, 10 uM compound
[5] = target: BZD (central); assay: radioligand displacement, 10 uM compound
[6] = target: MAO-A; assay: radioligand displacement, 10 uM compound
[7] = target: KV channel; assay: radioligand displacement, 10 uM compound
[8] = target: PDE3A (h) (human (printed (h))) (UniProt Q14432)
[9] = target: Acetylcholinesterase (h) (human (printed (h))) (UniProt P22303)
[10] = target: PDE4D2 (h) (human (printed (h))) (UniProt Q08499)
[11] = target: Lck kinase (h) (human (printed (h))) (UniProt P06239)
[12] = target: COX1(h) (human (printed (h))) (UniProt P23219)
[13] = target: T1, COX2(h) (human (printed (h))) (UniProt P35354)
T1 sequence: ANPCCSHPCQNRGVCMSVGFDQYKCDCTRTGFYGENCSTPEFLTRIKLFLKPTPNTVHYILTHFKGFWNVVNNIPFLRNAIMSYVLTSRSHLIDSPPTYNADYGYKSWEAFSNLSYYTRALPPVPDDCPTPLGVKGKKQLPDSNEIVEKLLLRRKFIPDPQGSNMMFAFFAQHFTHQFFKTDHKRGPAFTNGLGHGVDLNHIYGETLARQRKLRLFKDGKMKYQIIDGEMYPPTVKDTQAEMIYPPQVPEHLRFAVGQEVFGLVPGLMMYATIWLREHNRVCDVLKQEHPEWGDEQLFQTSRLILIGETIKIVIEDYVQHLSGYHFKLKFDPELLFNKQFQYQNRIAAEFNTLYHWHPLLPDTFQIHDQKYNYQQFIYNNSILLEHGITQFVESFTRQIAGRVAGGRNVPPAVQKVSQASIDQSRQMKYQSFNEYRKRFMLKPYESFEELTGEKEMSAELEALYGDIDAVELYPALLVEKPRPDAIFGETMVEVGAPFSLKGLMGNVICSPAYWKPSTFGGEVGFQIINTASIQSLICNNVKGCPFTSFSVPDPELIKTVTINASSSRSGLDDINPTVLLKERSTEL

[14] = target: Recombinant human DPP4 (R&D systems, #9168-SE) (human)
[15] = target: recombinant human PREP (R&D systems, #4308-SE) (human)
[16] = target: mu (MOP) (h) (human (printed (h))) (UniProt P35372); assay: radioligand displacement, reference compound of the panel
[17] = target: delta (DOP) (h) (human (printed (h))) (UniProt P41143); assay: as above

Chain of PDE4D2 (h) (human (printed (h))) (Q08499 303-809): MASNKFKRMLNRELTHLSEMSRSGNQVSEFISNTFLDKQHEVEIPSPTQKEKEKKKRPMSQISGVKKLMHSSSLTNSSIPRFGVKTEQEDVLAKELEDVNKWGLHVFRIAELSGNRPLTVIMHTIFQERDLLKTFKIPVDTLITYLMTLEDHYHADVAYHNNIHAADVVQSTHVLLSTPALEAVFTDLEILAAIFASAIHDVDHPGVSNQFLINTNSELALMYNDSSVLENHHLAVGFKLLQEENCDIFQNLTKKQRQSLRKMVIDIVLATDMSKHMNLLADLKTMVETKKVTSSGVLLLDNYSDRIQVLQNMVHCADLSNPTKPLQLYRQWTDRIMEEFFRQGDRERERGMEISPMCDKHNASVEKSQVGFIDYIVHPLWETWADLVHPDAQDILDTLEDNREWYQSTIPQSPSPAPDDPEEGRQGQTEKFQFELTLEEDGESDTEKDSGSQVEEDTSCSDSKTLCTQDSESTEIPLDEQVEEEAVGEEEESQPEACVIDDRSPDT
Chain of COX1(h) (human (printed (h))) (P23219 24-599 limits assumed): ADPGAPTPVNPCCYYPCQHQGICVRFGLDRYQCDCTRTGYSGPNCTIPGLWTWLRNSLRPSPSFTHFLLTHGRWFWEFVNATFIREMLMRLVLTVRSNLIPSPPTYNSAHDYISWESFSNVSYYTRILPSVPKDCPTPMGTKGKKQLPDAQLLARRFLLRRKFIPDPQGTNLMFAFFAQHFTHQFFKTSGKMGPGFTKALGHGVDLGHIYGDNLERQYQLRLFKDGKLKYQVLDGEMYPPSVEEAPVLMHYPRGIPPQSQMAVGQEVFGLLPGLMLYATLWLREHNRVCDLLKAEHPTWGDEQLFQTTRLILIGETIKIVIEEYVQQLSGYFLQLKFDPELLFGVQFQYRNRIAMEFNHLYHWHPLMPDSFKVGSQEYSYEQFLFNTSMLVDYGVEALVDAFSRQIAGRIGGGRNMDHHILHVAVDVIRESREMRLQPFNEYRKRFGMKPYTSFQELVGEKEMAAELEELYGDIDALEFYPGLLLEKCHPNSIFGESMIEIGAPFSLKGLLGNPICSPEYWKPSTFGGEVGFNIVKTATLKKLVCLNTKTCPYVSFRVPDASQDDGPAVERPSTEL

Substance	% Inhibition of Specific Binding [2] [%]	% Inhibition of Specific Binding [3] [%]	% Inhibition of Specific Binding [4] [%]	% Inhibition of Specific Binding [5] [%]	% Inhibition of Specific Binding [6] [%]	% Inhibition of Specific Binding [7] [%]	% inhibition of control enzyme activity [8] [%]	% inhibition of control enzyme activity [9] [%]	% inhibition of control enzyme activity [10] [%]	% inhibition of control enzyme activity [11] [%]	% inhibition of control enzyme activity [12] [%]	% inhibition of control enzyme activity [13] [%]	pIC50 (DPP4) [14] [pIC50]	pIC50 (PREP) [15] [pIC50]	further results
alpha-dendrotoxin (from UniProt P00980) (peptide)	–	–	–	–	–	–	–	–	–	–	–	–	–	–	Ki [1]: 0.097 nM
Hex-[Cys(tMeBn(DOTA-AET))-Pro-Pro-Thr-Gln-Phe-Cys]-OH (3BP-3554) (peptide)	14	1	54	5	-25	4	-37	1	-4	-4	8	-22	–	–	–
Hex-[Cys(tMeBn(DOTA-PP))-Pro-Pro-Thr-Gln-Phe-Cys]-Asp-NH2 (3BP-3407) (peptide)	-7	9	42	-9	-5	-5	-3	-6	-5	10	10	-14	< 6	< 6	–
DAMGO (peptide)	–	–	–	–	–	–	–	–	–	–	–	–	–	–	Ki [16]: 0.37 nM
DPDPE (peptide)	–	–	–	–	–	–	–	–	–	–	–	–	–	–	Ki [17]: 1.2 nM
Hex-[Cys(3MeBn)-Pro-Pro-Thr-Glu-Phe-Cys]-Asp-His-Nmf-Arg-Ttds-Lys(DOTA)-NH2 (3BP-3275) (peptide)	–	–	–	–	–	–	–	–	–	–	–	–	< 6	< 6	–

Reference: US20220315554A1, “COMPOUNDS COMPRISING A […] LIGAND AND USE THEREOF” (priority 2019, published 2022)
